In publication PMC4672631 (Biochemistry, 2015):

B1: cytochrome b6, spinach (natural protein, UniProt P00165 1-215, looked up)
chain: MSKVYDWFEERLEIQAIADDITSKYVPPHVNIFYCLGGITLTCFLVQVATGFAMTFYYRPTVTDAFASVQYIMTEVNFGWLIRSVHRWSASMMVLMMILHVFRVYLTGGFKKPRELTWVTGVVLGVLTASFGVTGYSLPWDQIGYWAVKIVTGVPDAIPVIGSPLVELLRGSASVGQSTLTRFYSLHTFVLPLLTAVFMLMHFLMIRKQGISGPL
B2: iron-sulfur protein (ISP), spinach (natural protein, UniProt P08980 52-230, looked up)
chain: ATSIPADNVPDMQKRETLNLLLLGALSLPTGYMLLPYASFFVPPGGGAGTGGTIAKDALGNDVIAAEWLKTHAPGDRTLTQGLKGDPTYLVVESDKTLATFGINAVCTHLGCVVPFNAAENKFICPCHGSQYNNQGRVVRGPAPLSLALAHCDVDDGKVVFVPWTETDFRTGEAPWWSA
B3: subunit IV, spinach (natural protein, UniProt P00166 1-160, looked up)
chain: MGVTKKPDLNDPVLRAKLAKGMGHNYYGEPAWPNDLLYIFPVVILGTIACNVGLAVLEPSMIGEPADPFATPLEILPEWYFFPVFQILRTVPNKLLGVLLMASVPAGLLTVPFLENVNKFQNPFRRPVATTVFLVGTVVALWLGIGATLPIDKSLTLGLF

Biological target: cytochrome f (PetA), spinach (spinach, UniProt P16013 36-320)
Sequence (P16013 36-320): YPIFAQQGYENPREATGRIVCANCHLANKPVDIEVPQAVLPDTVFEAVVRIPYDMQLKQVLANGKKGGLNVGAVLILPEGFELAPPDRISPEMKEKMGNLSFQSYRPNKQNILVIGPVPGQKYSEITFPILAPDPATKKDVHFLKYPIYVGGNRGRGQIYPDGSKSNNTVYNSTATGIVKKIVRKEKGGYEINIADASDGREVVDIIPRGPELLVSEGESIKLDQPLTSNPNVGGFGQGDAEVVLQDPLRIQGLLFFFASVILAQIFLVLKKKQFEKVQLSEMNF
Assay: co-purification with SDS-PAGE densitometry

Binder | stoichiometry N
B1 | 0.96 relative to cyt f
B2 | 0.95 relative to cyt f
B3 | 0.85 relative to cyt f
